From paper PMC4320653

What was measured:
TRBP (Homo sapiens) = TRBP (Homo sapiens) (UniProt Q15633); details: cited from earlier work
[1] = target: human Dicer, wild type, full-length (human) (UniProt Q9UPY3); test: ITC

TRBP (from UniProt Q15633)
Kd (TRBP (Homo sapiens)): 54000 nM

B1: TRBP3: third dsRBD of human TRBP with its N-terminal extension, residues 258-366 (domain or fragment)
chain: NRGPGCTWDSLRNSVGEKILSLRSCSLGSLGALGPACCRVLSELSEEQAFHVSYLDIEELSLSGLCQCLVELSTQPATVCHGSATTREAARGEAARRALQYLKIMAGSK
Kd [1]: 4.3 nM
dH [1]: -97.1 kJ/mol
stoichiometry N [1]: 1.35

B2: human TRBP (isoform TRBP2, 366 residues), full-length, residues 1-366 (natural protein)
chain: MSEEEQGSGTTTGCGLPSIEQMLAANPGKTPISLLQEYGTRIGKTPVYDLLKAEGQAHQPNFTFRVTVGDTSCTGQGPSKKAAKHKAAEVALKHLKGGSMLEPALEDSSSFSPLDSSLPEDIPVFTAAAAATPVPSVVLTRSPPMELQPPVSPQQSECNPVGALQELVVQKGWRLPEYTVTQESGPAHRKEFTMTCRVERFIEIGSGTSKKLAKRNAAAKMLLRVHTVPLDARDGNEVEPDDDHFSIGVGSRLDGLRNRGPGCTWDSLRNSVGEKILSLRSCSLGSLGALGPACCRVLSELSEEQAFHVSYLDIEELSLSGLCQCLVELSTQPATVCHGSATTREAARGEAARRALQYLKIMAGSK
Kd [1]: 2.8 nM
dH [1]: -66.5 kJ/mol
stoichiometry N [1]: 0.84
